Results on one molecule are retold here after patent US20040260069A1 (Merck KGaA, published 2004).

Assay [1] addresses T1, TNF alpha (PeproTech EC Ltd, London, UK) (human, UniProt P01375 77-233).
T1 construct: also called tumor necrosis factor alpha
The experiment in a line: plate ELISA, TNF alpha coated at 2.5 µg/ml, anti-human IgG-HRP detection. In general terms: ELISA stands for enzyme-linked immunosorbent assay.

A further assay concerns the target T2, biotinylated TNF alpha (human, UniProt P01375 77-233, biotinylated using EZ link Sulfo-NHS-biotin (sites not given)).
T2 construct: also called biotin-TNF alpha
The experiment in a line: competition ELISA, antibody against plate-bound TNF alpha RII-Fc for biotin-TNF alpha.

T1 sequence (P01375 77-233 limits assumed): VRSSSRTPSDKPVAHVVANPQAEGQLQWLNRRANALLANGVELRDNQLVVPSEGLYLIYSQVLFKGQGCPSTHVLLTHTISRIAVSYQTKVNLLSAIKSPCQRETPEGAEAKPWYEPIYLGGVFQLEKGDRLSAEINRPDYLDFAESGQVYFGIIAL
T2 sequence (P01375 77-233 limits assumed): as above

B1: modified anti-TNF alpha antibody Vh5/Vk12 (antibody, human IgG1, V domains shown)
VH: EVKLEESGGGLVQPGGSLRLSCAASGFTFSNHWMNWVRQSPEKGLEWVAETRSKSTNSATHYAESVKGRFTISRDDSKNSLYLQMNSLKTEDTGVYYCSRNYYGSTYDYWGQGTTVTVSS
VL: DIQLTQSPDTSSASPGERASFSCRASQFVGSSIHWYQHTTNGSPRLLIKYASESMSGVPSRFSGSGSGTDFTLTINSLEAEDAATYYCQQSHSWPFTFGSGTNLEVKR
notes: Expressed in NS/0 cells as whole antibody with a human IgG1 constant region (vector pSVgpt) and a human kappa constant region (vector pSVhyg); also called modified antibody of the invention; preferred antibody of the present invention
On to B1, for which the binding result (in assay [1]; with biotinylated TNF alpha) was “binds” each time.
